Values belong to the binder of their own block, whether it stands above or below them.
Key:
[1] = target: T1, human PVRIG expressed on cells (human, UniProt Q6DKI7 41-326); test: cell-based or functional assay
T1 sequence (looked up): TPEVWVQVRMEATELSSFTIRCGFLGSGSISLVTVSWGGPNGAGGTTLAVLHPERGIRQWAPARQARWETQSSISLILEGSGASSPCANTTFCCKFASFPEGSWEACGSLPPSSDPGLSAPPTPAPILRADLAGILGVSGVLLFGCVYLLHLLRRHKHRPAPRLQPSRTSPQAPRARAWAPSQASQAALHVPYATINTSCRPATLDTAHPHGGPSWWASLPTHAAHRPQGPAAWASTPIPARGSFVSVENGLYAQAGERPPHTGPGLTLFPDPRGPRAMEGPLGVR

[2] = target: T2, mouse IgG2a Fc-tagged human PVRIG (h-PVRIG-mIgG2a Fc) recombinant protein (human, UniProt Q6DKI7 41-171, limits assumed); test: competition ELISA; human PVRIG coated, competitor human PVRL2
T2 construct: bought from Acrobiosystems; not shown: mouse IgG2a Fc tag
T2 sequence (looked up): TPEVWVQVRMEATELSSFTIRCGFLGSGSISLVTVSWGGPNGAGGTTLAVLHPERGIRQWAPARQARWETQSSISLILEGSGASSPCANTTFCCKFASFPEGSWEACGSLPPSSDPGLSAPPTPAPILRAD

[3] = target: T3, his-tagged human PVRIG (h-PVRIG-his) recombinant protein (human, UniProt Q6DKI7 41-171, limits assumed); test: ELISA, coated antigen
T3 construct: bought from Acrobiosystems; also called Human PVRIG-his; human PVRIG recombinant protein; not shown: his tag
T3 sequence (looked up): T2 sequence (looked up)

[4] = target: T1, human PVRIG expressed on cells; test: cell-based or functional assay; remark: listed apart in the source
[5] = target: T1, human PVRIG expressed on cells; test: FACS, HEK293 cells overexpressing target
Protocol: The expression plasmid carrying human or cynomolgus monkey PVRIG gene sequence was transfected into HEK293 cells, and the over-expressing stable transfection monoclonal cell strain was obtained by antibiotic screening and infinite dilution. Overexpressing cells were seeded into a 96-well plate at 2×10⁵ cells/per well. The cells were centrifuged at 300 g for 5 min, the supernatant was then removed, 100 μL of the test antibody was added, and the mixture was incubated at 4° C. for 1 h. The mixture was centrifuged, the supernatant was removed, the plate was washed 3 times with 200 μL of wash buffer (PBS+2% FBS), and then 100 μL of an anti-human IgG secondary antibody (Invitrogen, A-11013) labeled with Alexa Fluor 488 diluted at 1:500 was added. The mixture was incubated at 4° C. for 1 h. The plate was centrifuged, and the supernatant was removed. The plate was washed 3 times with 200 μL of wash buffer (PBS+2% FBS). The cells were resuspended in 100 μL of PBS and tested on a flow cytometer (BD FACS Calibur or BD FACS Canto_II).
Binding of the humanized anti-PVRIG antibodies to human or cynomolgus monkey PVRIG was detected by using a flow cytometer according to the method of Example 5.

[6] = target: T1, human PVRIG expressed on cells; test: FACS, cells overexpressing target
[7] = target: T4, cynomolgus monkey PVRIG expressed on cells (cynomolgus monkey, UniProt A0A2K5WVV8 1-322); test: FACS, cells overexpressing target
T4 construct: whole, on cells; also called Monkey PVRIG FACS; cells overexpressing cynomolgus monkey PVRIG
T4 sequence: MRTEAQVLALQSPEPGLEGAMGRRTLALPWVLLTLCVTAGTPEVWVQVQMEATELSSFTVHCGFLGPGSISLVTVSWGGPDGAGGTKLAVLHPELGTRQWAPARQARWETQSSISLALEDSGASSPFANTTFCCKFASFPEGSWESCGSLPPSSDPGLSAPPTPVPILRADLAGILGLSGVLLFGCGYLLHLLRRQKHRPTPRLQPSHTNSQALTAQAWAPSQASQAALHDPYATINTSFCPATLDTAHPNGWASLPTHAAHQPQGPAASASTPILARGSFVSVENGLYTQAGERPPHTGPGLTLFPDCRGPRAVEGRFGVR

[8] = target: T5, human PVRIG antigen (AcroBiosystem, PVG-H52H4) (human, UniProt Q6DKI7 41-171, limits assumed); test: SPR (Biacore X100), antibody captured on Protein A chip, 1:1 fit
T5 sequence (looked up): T2 sequence (looked up)
From the text: (§1) The affinity of the humanized bispecific antibodies for human PVRIG, cynomolgus monkey PVRIG and human TIGIT was detected using Biacore. Humanized bispecific antibodies were each captured on a Protein A biosensor chip (GE lifesciences, 29127557) of a Biacore instrument (Biacore X100, GE), and then human PVRIG antigen (AcroBiosystem, PVG-H52H4), cynomolgus monkey PVRIG antigen (SEQ ID NO: 1), or human TIGIT antigen (AcroBiosystem, TIT-H52H3) at a series of concentration gradients each flowed over the chip surface. The reaction signals were detected in real time using a Biacore instrument (Biacore X100, GE) to obtain association and dissociation curves. The data obtained from the experiment were fitted using the (1:1) Binding model with the BiacoreX100 evaluation software 2.0 GE to obtain affinity values (see Table 31).

[9] = target: T6, his-tagged cynomolgus monkey PVRIG (cyno-PVRIG-his) recombinant protein (cynomolgus monkey); test: as above
T6 construct: expressed in HEK293, purified by Ni-NTA; also called Monkey PVRIG-his; cynomolgus monkey PVRIG recombinant protein
T6 chain: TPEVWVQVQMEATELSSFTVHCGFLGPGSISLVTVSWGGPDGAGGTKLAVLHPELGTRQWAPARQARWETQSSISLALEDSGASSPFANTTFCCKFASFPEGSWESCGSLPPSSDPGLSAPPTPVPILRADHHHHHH
From the text: as §1

[10] = target: T7, human TIGIT antigen (AcroBiosystem, TIT-H52H3) (human, UniProt Q495A1 22-141); test: as above
T7 sequence (looked up): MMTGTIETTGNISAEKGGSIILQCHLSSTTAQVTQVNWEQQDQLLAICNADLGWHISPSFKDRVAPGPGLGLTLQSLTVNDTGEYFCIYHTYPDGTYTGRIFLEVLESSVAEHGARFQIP
From the text: as §1

B1: anti-PVRIG antibody 38 (antibody, human IgG4 S228P, F234A L235A, V domains shown)
VH: QVQLVESGGGSVQAGGSLRLSCAASPSTYGPSDMAWFRQAPGKQREGVATISAAGRLTYYTDSVRGRFTISRDNAKNTMYLQMNSLKPEDTAMYYCAADFAGGSSLFADYKYWGQGTQVTVSS
notes: no light chain
- reporter gene activity, fold of the positive antibody Tab5 [1]: 3.7 to 18.5 fold

B2: anti-PVRIG antibody 151 (antibody, human IgG4 S228P, F234A L235A, V domains shown)
VH: HVQLVESGGGSVQAGGSLRLSCVASASGFTYRPYCMAWFRQAPGKEREAVAGIDIFGGTTYADSVKGRFTASRDNAGFSLFLQMNDLKPEDTAMYYCAAGDSPDGRCPPLGQGLNYWGQGTQVTVSS
notes: no light chain
- reporter gene activity, fold of the positive antibody Tab5 [1]: 3.7 to 18.5 fold

B4: humanized anti-PVRIG/TIGIT bispecific antibody 1708-20H5 (bispecific antibody, human IgG4 S228P, kappa)
heavy: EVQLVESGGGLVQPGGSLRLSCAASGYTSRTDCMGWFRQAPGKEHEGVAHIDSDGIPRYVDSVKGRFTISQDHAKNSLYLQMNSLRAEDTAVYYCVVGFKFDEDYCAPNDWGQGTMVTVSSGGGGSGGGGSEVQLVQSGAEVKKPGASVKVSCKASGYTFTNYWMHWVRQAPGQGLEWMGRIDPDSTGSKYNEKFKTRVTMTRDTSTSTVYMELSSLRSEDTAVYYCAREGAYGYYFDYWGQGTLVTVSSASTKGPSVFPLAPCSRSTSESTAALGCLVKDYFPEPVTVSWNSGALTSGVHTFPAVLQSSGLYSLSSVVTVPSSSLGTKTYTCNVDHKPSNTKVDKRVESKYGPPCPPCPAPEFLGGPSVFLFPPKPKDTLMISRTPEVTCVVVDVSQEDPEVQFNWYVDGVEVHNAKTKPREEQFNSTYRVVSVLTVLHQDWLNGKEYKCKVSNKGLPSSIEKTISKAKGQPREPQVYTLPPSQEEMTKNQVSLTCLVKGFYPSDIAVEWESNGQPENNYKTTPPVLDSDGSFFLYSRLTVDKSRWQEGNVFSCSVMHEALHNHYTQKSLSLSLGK
light: DIQMTQSPSSLSASVGDRVTITCRASENIYSYLAWYQQKPGKSPKLLIYNARTLAEGVPSRFSGSGSGTDFTLTISSLQPEDFATYYCQYHSGSPLPFGGGTKVEIKRTVAAPSVFIFPPSDEQLKSGTASVVCLLNNFYPREAKVQWKVDNALQSGNSQESVTEQDSKDSTYSLSSTLTLSKADYEKHKVYACEVTHQGLSSPVTKSFNRGEC
- EC50 [7]: 0.07 nM
- Kd [8]: 0.00782 nM
- koff [8]: 0.00013 s⁻¹
- kon [8]: 1.67e+07 M⁻¹ s⁻¹
- Kd [9]: 7.05 nM
- koff [9]: 0.181 s⁻¹
- kon [9]: 2.56e+07 M⁻¹ s⁻¹
- Kd [10]: 0.0763 nM
- koff [10]: 0.00015 s⁻¹
- kon [10]: 1.97e+06 M⁻¹ s⁻¹

Other lines, results leading:

- IC50 [2]: 0.797 nM
- EC50 [3]: 1.86 nM
- PVRIG reporter gene cell activity EC50 [4]: 1.38 nM
- EC50 [5]: 0.16 nM
- EC50 [6]: 3.15 nM
B3: positive antibody Tab5 (antibody, human IgG4 S228P, kappa, F234A L235A, V domains shown)
VH: EVQLVESGGGVVKPGGSLRLSCAASGFTFGTSSMNWVRQAPGKGLEWVAVISFDGTEIHYADSVKGRFTISRDNSKSTVFLQMNSLRPDDTALYYCAKGSGNIYFYSGMDVWGQGTTVTVSS
VL: DIQMTQSPSTLSASVGDRVTITCRAGQSISGWLAWFQQKPGKAPNLLIYETSTLESGVPSRFSGSGSGTEYTLTISSLQPDDFATYYCQQYYSYPLTFGQGTKVEIKR
notes: Variable regions of CPA.7.021 (WO2016134333A1) on human IgG4 (S228P/F234A/L235A/K447A) and human kappa constant regions

- EC50 [7]: 3.54 nM
- Kd [8]: 0.706 nM
- koff [8]: 0.00912 s⁻¹
- kon [8]: 1.29e+07 M⁻¹ s⁻¹
- Kd [9]: 31.9 nM
- koff [9]: 0.581 s⁻¹
- kon [9]: 1.82e+07 M⁻¹ s⁻¹
- Kd [10]: 0.0512 nM
- koff [10]: 0.000158 s⁻¹
- kon [10]: 3.08e+06 M⁻¹ s⁻¹
B5: humanized anti-PVRIG/TIGIT bispecific antibody 1708-30H2 (bispecific antibody, human IgG4 S228P, kappa)
heavy: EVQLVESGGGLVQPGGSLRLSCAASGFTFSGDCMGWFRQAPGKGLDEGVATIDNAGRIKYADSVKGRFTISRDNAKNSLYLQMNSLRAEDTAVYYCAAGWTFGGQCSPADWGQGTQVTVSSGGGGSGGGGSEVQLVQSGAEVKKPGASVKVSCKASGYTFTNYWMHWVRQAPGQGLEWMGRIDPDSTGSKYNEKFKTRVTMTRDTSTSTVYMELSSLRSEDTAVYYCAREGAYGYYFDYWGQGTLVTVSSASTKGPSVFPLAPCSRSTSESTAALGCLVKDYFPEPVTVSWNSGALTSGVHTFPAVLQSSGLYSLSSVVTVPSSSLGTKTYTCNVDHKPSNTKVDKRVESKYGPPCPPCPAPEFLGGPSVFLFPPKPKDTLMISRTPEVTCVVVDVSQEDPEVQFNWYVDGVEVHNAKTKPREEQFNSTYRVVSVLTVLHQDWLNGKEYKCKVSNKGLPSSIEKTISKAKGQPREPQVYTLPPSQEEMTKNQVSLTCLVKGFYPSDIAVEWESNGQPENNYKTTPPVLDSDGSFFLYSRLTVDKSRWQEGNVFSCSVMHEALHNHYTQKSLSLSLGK
light: B4 light

— patent US20240376207A1 (JIANGSU HENGRUI PHARMACEUTICALS, published 2024)
